US20200376034A1 (DRAGONFLY THERAPEUTICS, published 2020)

Experiments:
[1] = biological target: T1, deglycosylated V domain of human CD33 (human, UniProt P20138 18-139, limits assumed, deglycosylated by PNGase); experiment: SPR, Fab captured, 37 C
T1 construct: whole entry named; also called deglycosylated V CD33
Procedure: (§1) Kinetics and affinity of a series of Fab fragments of anti-CD33 antibodies with different CD33 variants (human CD33 ECD, cyno CD33 ECD, V-domain of human CD33, C-domain or human CD33 and selected CD33 SNPs) were assessed by surface plasmon resonance using Biacore 8K instrument (GE Healthcare). Anti-Fab antibody was immobilized on a CMS chip using standard amine coupling chemistry. CD33 FABs were captured on the anti-Fab chip at a density of ˜100 RU. Solutions containing different concentrations of soluble monomeric CD33 or its domains were injected over the captured FABs and control surfaces at 30 μl/min at 37° C. Surfaces were regenerated between cycles by quick injection of 10 mM glycine, pH 1.8. To obtain kinetic rate constants double-referenced data were fit to a 1:1 interaction model using Biacore 8K Evaluation software (GE Healthcare). The equilibrium binding constant KD was determined by the ratio of binding rate constants kd/kₐ.
The ability of anti-CD33 antibodies to recognize glycosylated CD33 was assayed. […] De-glycosylation status was confirmed by a shift on SDS-PAGE and MS.

[2] = biological target: T2, human CD33 extracellular domain (human, UniProt P20138 18-259); experiment: SPR, Fab captured, 37 C
T2 construct: also called human CD33 ECD; hCD33
Procedure: as §1
(§2) Affinity of 29 Fab fragments binding to human and cyno CD33 ECD were assayed by Biacore analysis.

[3] = biological target: T2, human CD33 extracellular domain; experiment: SPR, Fab captured, 37 C; remark: listed apart in the source
Procedure: as §1, §2

[4] = biological target: T2, human CD33 extracellular domain; experiment: SPR, Fab captured, 37 C; remark: listed apart in the source
Procedure: as §1

[5] = biological target: T2, human CD33 extracellular domain; experiment: SPR, Fab captured, 37 C; remark: listed apart in the source
Procedure: as §1, §2

[6] = biological target: T2, human CD33 extracellular domain; experiment: BLI, IgG on sensor
Procedure: Briefly, ForteBio affinity measurements were performed by loading IgGs on-line onto AHC sensors. Sensors were equilibrated off-line in assay buffer for 30 min and then monitored on-line for 60 seconds for baseline establishment. Sensors with loaded IgGs were exposed to 100 nM antigen for 3 minutes, and afterwards were transferred to assay buffer for 3 min for off-rate measurement. All kinetics were analyzed using the 1:1 binding model.

Row | koff [1] [s⁻¹] | kon [1] [M⁻¹ s⁻¹] | koff [2] [s⁻¹] | kon [2] [M⁻¹ s⁻¹] | koff [3] [s⁻¹] | kon [3] [M⁻¹ s⁻¹] | koff [4] [s⁻¹] | kon [4] [M⁻¹ s⁻¹] | koff [5] [s⁻¹] | kon [5] [M⁻¹ s⁻¹] | koff [6] [s⁻¹] | kon [6] [M⁻¹ s⁻¹] | Binder
1 | 0.256 | 1.68e+06 | 0.0275 | 515000 | 0.0275 | 515000 | 0.0275 | 515000 | 0.0275 | 515000 |  |  | ADI-10163 Fab (Fab, V domains shown, Fab fragment; also called Ab17) VH: QVQLQESGPGLVKPSQTLSLTCTVSGGSISSGGYYWSWIRQHPGKGLEWIGSIYYSGSTYYNPSLKSRVTISVDTSKNQFSLKLSSVTAADTAVYYCARDRLDYSYNYGMDVWGQGTTVTVSS VL: DIQMTQSPSSLSASVGDRVTITCRASQSISSYLNWYQQKPGKAPKLLIYGASSLQSGVPSRFSGSGSGTDFTLTISSLQPEDFATYYCQQVYSAPFTFGGGTKVEIK
2 |  |  |  |  |  |  |  |  |  |  | 0.00453 | 665000 | ADI-10163 IgG (antibody, V domains shown, IgG; also called Ab17) VH: QVQLQESGPGLVKPSQTLSLTCTVSGGSISSGGYYWSWIRQHPGKGLEWIGSIYYSGSTYYNPSLKSRVTISVDTSKNQFSLKLSSVTAADTAVYYCARDRLDYSYNYGMDVWGQGTTVTVSS VL: DIQMTQSPSSLSASVGDRVTITCRASQSISSYLNWYQQKPGKAPKLLIYGASSLQSGVPSRFSGSGSGTDFTLTISSLQPEDFATYYCQQVYSAPFTFGGGTKVEIK
3 | 0.131 | 674000 | 0.0125 | 212000 | 0.0125 | 212000 | 0.0125 | 212000 | 0.0125 | 212000 |  |  | ADI-10173 Fab (Fab, V domains shown, Fab fragment; also called Ab22) VH: QVQLVQSGAEVKKPGASVKVSCKASGYTFTSYYMHWVRQAPGQGLEWMGIINPSGGSTTYAQKFQGRVTMTRDTSTSTVYMELSSLRSEDTAVYYCAREAADGFVGERYFDLWGRGTLVTVSS VL: not shown
4 |  |  |  |  |  |  |  |  |  |  | 0.00314 | 324000 | ADI-10173 IgG (antibody, V domains shown, IgG; also called Ab22) VH: QVQLVQSGAEVKKPGASVKVSCKASGYTFTSYYMHWVRQAPGQGLEWMGIINPSGGSTTYAQKFQGRVTMTRDTSTSTVYMELSSLRSEDTAVYYCAREAADGFVGERYFDLWGRGTLVTVSS VL: not shown
